Reference: article PMC8395149, “Der f 38 Is a Novel TLR4-Binding Allergen Related to Allergy Pathogenesis from Dermatophagoides farinae” (International Journal of Molecular Sciences, 2021)
Like-named read-outs stand apart in the source and are kept apart here.

Target: T1, recombinant TLR4 (UniProt O00206 24-631)
T1 construct: Toll-like receptor 4 (TLR4), recombinant protein from R&D Systems; also called Toll-like receptor 4; source: bought: R&D Systems
Assay: BLI; Octet QKe; recombinant TLR4 (1 ug/mL) immobilised in PBS by amine coupling on an AR2G sensor, blocked with 1 M ethanolamine pH 8.5; sensors dipped in 2-fold dilutions of Der f 38 (6400-400 nM and blank); association 300 s, dissociation 1200 s in assay buffer

T1 sequence (O00206 24-631): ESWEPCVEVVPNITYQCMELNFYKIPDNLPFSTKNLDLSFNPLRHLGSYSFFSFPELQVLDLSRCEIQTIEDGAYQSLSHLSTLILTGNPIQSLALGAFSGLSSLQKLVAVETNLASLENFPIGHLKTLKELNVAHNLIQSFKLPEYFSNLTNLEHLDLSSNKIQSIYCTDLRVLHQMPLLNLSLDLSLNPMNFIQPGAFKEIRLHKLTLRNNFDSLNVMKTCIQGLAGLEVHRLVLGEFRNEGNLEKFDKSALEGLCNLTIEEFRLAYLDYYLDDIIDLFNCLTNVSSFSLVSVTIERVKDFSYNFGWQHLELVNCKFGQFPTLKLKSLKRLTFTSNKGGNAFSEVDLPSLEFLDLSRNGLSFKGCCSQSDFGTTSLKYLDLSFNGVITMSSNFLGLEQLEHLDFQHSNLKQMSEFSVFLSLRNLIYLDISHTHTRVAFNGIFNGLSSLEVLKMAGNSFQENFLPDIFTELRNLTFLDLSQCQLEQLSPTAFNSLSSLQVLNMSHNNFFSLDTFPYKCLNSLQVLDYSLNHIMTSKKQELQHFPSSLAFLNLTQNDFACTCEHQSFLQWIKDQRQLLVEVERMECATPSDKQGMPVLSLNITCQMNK

recombinant Der f 38 (natural protein) gave a Kd of 74 nM.

B1: recombinant MD2 (natural protein, UniProt Q9Y6Y9 19-160, looked up)
chain: QKQYWVCNSSDASISYTYCDKMQYPISINVNPCIELKRSKGLLHIFYIPRRDLKQLYFNLYITVNTMNLPKRKEVICRGSDDDYSFCRALKGETVNTTISFSFKGIKFSKGKYKCVVEAISGSPEEMLFCLEFVILHQPNSN
notes: MD2 (MD-2, lymphocyte antigen 96), recombinant protein from R&D Systems; source: bought: R&D Systems
In the case of B1, the Kd (both partners purified) is reported as 1.56 nM.
